Measurements reported in patent US20250144275A1, “SYSTEM AND METHOD FOR COATING MEDICAL CONDUIT WITH PARTICLES AND USE THEREOF” (UNIVERSITY OF PITTSBURGH - OF THE COMMONWEALTH SYSTEM OF …, priority 2022, published 2025).

Test system: facial nerve of Lewis rats
Experiment: Histological processing of muscle, mystacial pad and buccal branch nerve
Assay type: in vivo
Settings: mystacial pad, qualitative, 12-week endpoint
Experimental: This study was performed on the facial nerve of Lewis rats (Charles River, Wilmington, MA). Institutional approval was obtained before performing the study, and all animal procedures and housing were performed under the guidelines of the University of Pittsburgh Institutional Animal Care and Use Committee and in compliance with animal experimentation ethics policies.
Surgical procedures. Rats were placed under general anesthesia and maintained with Isoflurane. Preauricular/buccal incision lines were marked (FIG. 8A) and the nerve branches were exposed (FIG. 8B). A 5 mm segment of the marginal mandibular branch was removed to prevent cross-innervation contribution to the whisker movement^41. The buccal branch was then transected, and the resultant 2 mm defect was primarily repaired with 9-0 nylon sutures. […]
Histological processing. […] For the muscles, the mean muscle fiber pixel area was calculated from brightfield staining. […] Cross-sections of the main buccal branch distal to the injury site were analyzed for the number of axons. For S100, sections of the nerve distal and proximal to the transection and repair site were quantified separately and the ratio was used for comparison. All samples were blinded before quantification.

B1: GDNF: Recombinant human GDNF protein (R&D Systems), active agent of the microspheres (protein, UniProt P39905 78-211, looked up)
Glial cell line-derived …: SPDKQMAVLPRRERNRQAAAANPENSRGKGRRGQRGKNRGCVLTAIHLNVTDLGLGYETKEELIFRYCSGSCDAAETTYDKILKNLSRNRRLVSDKVGQACCRPIAFDDDLSFLDDNLVYHILRKHSAKRCGCI
modifications: in microspheres
local adverse effects on whisker pad and intrinsic vibrissae muscles (morphology): no local adverse effects
